Test results as given in the supplement of paper PMC9170038.

Test system: MS2 coat protein
Assay: apparent KD of MS2 coat protein; designed switch direction (-1 OFF switch, 1 ON switch): 1; higher = weaker reporter binding
Method in brief: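 Apparent KD, taken as the median over clusters for each design, was obtained by curve-fitting normalised cluster fluorescence. Designed RNA switches had been transcribed on Illumina chips by stalled E. coli RNA polymerase and titrated with SNAP-549-labelled MS2 coat protein, doubling from 0.7 or 1.5 nM to 3 µM.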

[1] = input ligand: microRNA oligo, concentration not stated
[2] = Eterna round: R95, input ligand: FMN 200 uM
[3] = Eterna round: R95, input ligand: microRNA oligo, concentration not stated
[4] = Eterna round: R95, input ligand: none

| Sequence | apparent KD of MS2 coat protein (input ligand: FMN 200 uM) | apparent KD of MS2 coat protein [1] | apparent KD of MS2 coat protein (input ligand: none) | apparent KD of MS2 coat protein [2] | apparent KD of MS2 coat protein [3] | apparent KD of MS2 coat protein [4] |
| --- | --- | --- | --- | --- | --- | --- |
| CAAGGGUACGGAUUAGUACAUGAGGAUCACCCAUGUAUCCGACAGGAUAUCAUGUAAGAAGCCAGUGAGAAGGGUCUAGUCCAA [Eternabot solution 43] (Eterna round: R96, puzzle: Same State NG 3) | 367 nM | 205 nM | 460 nM | – | – | – |
| CACGUCCAGGUAGGAUAUGAGGUGCCAUAGGGAACAGCCUAUGGACAUGAGGAUCACCCAUGUCCUCAGAAGGGCCAGACGUGA [Rasote] (Eterna round: R96, puzzle: Same State NG 2) | 25.7 nM | 116 nM | 171 nM | – | – | – |
| CAGCGCUGCCGGGAGGAUAUGCGGUGAUGGACAUGAGGAUCACCCAUGUUAGCGGUAGCAUUACGGCAGAAGGCCCUGCAGCUGC [Soteed Omei mod 1] (puzzle: Same State 2) | – | – | – | 10.9 nM | 12.3 nM | 12.3 nM |
| CAGCGCUGUCGAGAGGAUAUGCGGUGAUGGACAUGAGGAUCACCCAUGUUAGCGAUAGCAUUACUGUAGAAGGCUCUACAGCUGC [JL-ss2-3.08 ViennaUCT mod] (puzzle: Same State 2) | – | – | – | – | 24.3 nM | – |
| CAUUCUUUUCCGGAGGAUAUGCUACCCUUUACAUGAGGAUCACCCAUGUUACCCUCUUCUUGUCAGUAGAAGGCCGUUUCUUAAC [Regan] (puzzle: Same State 2) | – | – | – | – | 27.3 nM | – |
| CCAAUGUACAAUUUAGAUCUACAUGAGGAUCACCCAUGUACAGAGGAUAUCAGCUCGAAUAGAGCUGAGAAGGCUGAAUUAAUU [SSNG3/3-A1] (Eterna round: R96, puzzle: Same State NG 3) | 88.2 nM | 153 nM | 226 nM | – | – | – |
| CCCGUCUACAGAAAGGUAGAUGGGAAUGUACAUGAGGAUCACCCAUGUUAAUAUGAGUUUGUUGAUAAUUAUGAAUU [Modxample 50 - Jieux - Sensor for bsa-mir-208a] (Eterna round: R96, puzzle: Sensor for hsa-mir-208a) | 19.7 nM | 18.9 nM | 24.4 nM | – | – | – |
| CCCUGAGGUAGCCCACAGGGACAUGAGGAUCACCCAUGUACACAGGAUAUCGAGGGCUCCGCCUUCGAGAAGGGUGAUCAAACU [Geditedi] (Eterna round: R96, puzzle: Same State NG 3) | 148 nM | 18.2 nM | 53.4 nM | – | – | – |
| CCGAGUGGCGUACAGGAUAUGUUGCAUGGAACAUGAGGAUCACCCAUGUAUUUGCUCCCGCAUACGCAGAAGGGUGCGUCCUGGG [Arraquorso] (Eterna round: R96, puzzle: Same State 2) | 25 nM | 31.4 nM | 46.9 nM | – | – | – |
| CCGAUAAUUGGAGGAUAUGGAGCCUUAUUGGCUCCAGAAGGCUAUAAACAUGAGGAUCACCCAUGUCGGCGGUCUAAUGACCGA [Eli NG1ss - 50] (Eterna round: R96, puzzle: Same State NG 1) | 28 nM | 36.6 nM | 60.4 nM | – | – | – |
| CCGAUGUGGGUACAGGAUAUGUGGGCCUCCACAUGAGGAUCACCCAUGUCGGAGGCAAAGCGGCUACAGAAGGGUGCGAGCUCGA [Xeanza] (puzzle: Same State 2) | – | – | – | – | 9.28 nM | – |
| CCGAUUUAUGGAGGAUAUGGAGCCUUAUUGGCUCCAGAAGGCUAAUAACAUGAGGAUCACCCAUGUCGGCGGUCUAAUGACCGA [Eli NG1ss - 52] (Eterna round: R96, puzzle: Same State NG 1) | 39.2 nM | 47.5 nM | 91.6 nM | – | – | – |
| CCGGUUUAUGGAGGAUAUGGAGCCUUAUUGGCUCCAGAAGGCUAAACAUGAGGAUCACCCAUGUUACCGGCGGUCAAUAGACCG [Eli NG1ss - 60] (Eterna round: R96, puzzle: Same State NG 1) | 11.8 nM | 20.5 nM | 23.1 nM | – | – | – |
| CCUUGUAGCGGAGGAUAUGGGCCUCACUCAGUCAAAGAGUGAGAAACAUGAGGAUCACCCAUGUCCCAGAAGGCCGCUGCUUGG [Estiveveza] (Eterna round: R96, puzzle: Same State NG 2) | – | 12.3 nM | – | – | – | – |
| CGAUGAUACUUAGGAAAGAGAGUAGAGGAACAUGAGGAUCACCCAUGUAUGAGCUUUUUGCUCGUCAUGAACAGGAA [JR_SHM208a_Sub008] (puzzle: Sensor for hsa-mir-208a) | – | – | – | 88.6 nM | 62.4 nM | 168 nM |
| CGGCGCUGUCGAGAGGAUAUGCGGUGAUGGACAUGAGGAUCACCCAUGUUAGCGAUAGCAUUACGGUAGAAGGCUCUAUAGUUGC [Soteed Omei mod 9] (puzzle: Same State 2) | – | – | – | – | 248 nM | – |
| CGGCUUGUACAUGAGGAUCACCCAUGUAUGUACAAGUUUUUGCUCGUCUUAUAAAUACGAUCUACCGAAAGGUAGAU [BIOPHYS241_ElaineNg_1] (puzzle: Sensor for hsa-mir-208a version 2) | – | – | – | 276 nM | 18.7 nM | 236 nM |
| CGGGAGAUCGUAGGAUAUCUAGGAUAUGAACGAGGAUCACCCGAGCAGCAUCAGCGCAUCAGAGGAGAGAAGGACGAUCAUGCG [pwkr ssNG2 2F5 2FMN.6] (Eterna round: R96, puzzle: Same State NG 2) | 751 nM | 31.7 nM | 741 nM | – | – | – |
| CGGGUACAUGAGGAUCACCCAUGUGGGAGGGAUGCAGGAUAUGUGGGAAAAGGGUAUGUAACAGAAGGGCAAGGAG [JR_SS!_Sub014] (puzzle: Same State 1) | – | – | – | 30.8 nM | 31.8 nM | 45.1 nM |
| CGUAGGUAGCUGGAGGAUAUUCGAGUGGUAACAUGAGGAUCACCCAUGUGGAGAGAGGUACAUGAGGAGAAGGCUAGCUGCCUGC [JL-ss2-3.14 JL mod] (puzzle: Same State 2) | – | – | – | 13.4 nM | 22 nM | 27.1 nM |
| CGUAGGUGGCUGGAGGAUAUUCGAGUGGUAACAUGAGGAUCACCCAUGUGUCGCGCGGUACAUGAGGAGAAGGCUAGCGGCCUGC (puzzle: Same State 2) | – | – | – | 20.8 nM | 118 nM | 250 nM |
| CGUCCAGCCUGAGCUGGACAAAAGCAUGUACAUGAGGAUCACCCAUGUUCAUGUACAAGCUUUUUGCUCGUCUUAUC [salish99_208a_r3_055] (puzzle: Sensor for hsa-mir-208a) | – | – | – | 597 nM | 14.4 nM | 587 nM |
| CGUCCGGCCUGAGCUGGACGGAAGCUUGUACAUGAGGAUCACCCAUGUUCAUGUGCAGGCUUUUUGCUCGUCUUGUG [salish99_mir208a_modof_jandersonlee] (puzzle: Sensor for hsa-mir-208a) | – | – | – | 19.8 nM | 18.8 nM | 23.4 nM |
| CGUCCGGCCUGUGCUGGCCGGAUGCAUGUACAUGAGGAUCACCCAUGUUCAUGUGCAGGCUUUUUGCUCGUCUUGUG [salish99_mir208a_r3_008] (puzzle: Sensor for hsa-mir-208a) | – | – | – | 19.2 nM | 11.9 nM | 23.1 nM |
| CGUCGCUGUCGAGAGGAUAUGCGGUGAUGGACAUGAGGAUCACCCAUGUUAGCGAUAGCAUCGCGGCAGAAGGCUCUUACGACUG [Soteed Omei mod 28] (puzzle: Same State 2) | – | – | – | 18.6 nM | 19.8 nM | 23.7 nM |
| CGUCGUUUGAUAGGAUAUCGCUUUGCAUGAGGAUCACCCAUGUUUACCACGCUGGUUUUUCUUUCCGAGAAGGAUUCUGAUGUU [salish99_SSNG02_r04_024] (Eterna round: R96, puzzle: Same State NG 2) | 42 nM | 29.2 nM | 39.6 nM | – | – | – |
| CGUCGUUUGGUAGGAUAUCGCUAUACAUGAGGAUCACCCAUGUUUACCACGCUGGUUUUUCAUACCGAGAAGGAUUCUGAUGUU [salish99_SSNG02_r04_017] (Eterna round: R96, puzzle: Same State NG 2) | 16 nM | 14.9 nM | 19.8 nM | – | – | – |
| CGUUCAUACUCAGGACGGAGAGUAGAGGAACAUGAGGAUCACCCAUGUAUGAGCUUUUUGCUCGUCAUUAACAGUAG [JR_SHM208a_Sub012] (puzzle: Sensor for hsa-mir-208a) | – | – | – | 61.8 nM | 43.4 nM | 81.2 nM |
| CUACUACAUGAGGAUCACCCAUGUUAUAGUGAUGCAGGAUAUGUGUGACCAGAAGAUGAAACAGAAGGGCAAAGAA [JR_SS!_Sub001] (puzzle: Same State 1) | – | – | – | 31.4 nM | 33.1 nM | 30.1 nM |
